# Experimental data as given in patent US20020122804.
# T1: hyphal wall protein 1 (Hwp1) on C. albicans germ tube surfaces, P46593
# T1 chain: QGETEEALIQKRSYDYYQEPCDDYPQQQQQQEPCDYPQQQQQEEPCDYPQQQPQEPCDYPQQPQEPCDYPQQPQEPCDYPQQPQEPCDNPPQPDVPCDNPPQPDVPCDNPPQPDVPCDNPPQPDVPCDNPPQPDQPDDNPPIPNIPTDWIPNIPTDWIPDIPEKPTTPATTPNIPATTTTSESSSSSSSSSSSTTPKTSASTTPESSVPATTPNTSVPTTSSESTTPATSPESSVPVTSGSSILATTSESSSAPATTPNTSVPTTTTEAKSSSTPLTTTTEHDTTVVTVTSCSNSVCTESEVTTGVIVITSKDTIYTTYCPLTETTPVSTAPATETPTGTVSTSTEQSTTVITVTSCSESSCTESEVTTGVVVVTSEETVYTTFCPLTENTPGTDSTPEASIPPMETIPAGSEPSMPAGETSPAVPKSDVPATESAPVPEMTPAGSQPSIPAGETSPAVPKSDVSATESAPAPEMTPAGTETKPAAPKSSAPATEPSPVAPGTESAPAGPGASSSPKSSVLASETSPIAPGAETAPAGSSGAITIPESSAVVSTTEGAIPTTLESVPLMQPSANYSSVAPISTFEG
# How the values were obtained:
# [1] = biological target: T1, hyphal wall protein 1 (Hwp1) on C. …
# [2] = biological target: BSA (Fraction V, Sigma), P02769
# BSA (Fraction V, Sigma), P02769, sequence (P02769 25-607): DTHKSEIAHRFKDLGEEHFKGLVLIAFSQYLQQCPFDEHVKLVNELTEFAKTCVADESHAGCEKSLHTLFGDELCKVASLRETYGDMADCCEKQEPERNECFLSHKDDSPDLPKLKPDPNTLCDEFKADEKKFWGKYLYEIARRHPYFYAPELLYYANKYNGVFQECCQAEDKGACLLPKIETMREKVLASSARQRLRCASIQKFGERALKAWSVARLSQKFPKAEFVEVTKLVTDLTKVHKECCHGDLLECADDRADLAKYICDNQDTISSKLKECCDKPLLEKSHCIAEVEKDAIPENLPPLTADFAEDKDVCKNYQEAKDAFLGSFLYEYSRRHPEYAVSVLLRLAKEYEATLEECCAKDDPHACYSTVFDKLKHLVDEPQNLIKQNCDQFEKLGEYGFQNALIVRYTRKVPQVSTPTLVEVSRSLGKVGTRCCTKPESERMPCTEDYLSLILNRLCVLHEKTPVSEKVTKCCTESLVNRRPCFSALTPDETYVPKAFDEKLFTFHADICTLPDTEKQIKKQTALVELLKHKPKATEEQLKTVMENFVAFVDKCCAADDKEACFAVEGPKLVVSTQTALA
protein,measurement,setting,value
guinea pig liver transglutaminase (protein) AEDLILERCDLQLEVNGRDHRTADLCRERLVLRRGQPFWLTLHFEGRGYEAGVDTLTFNAVTGPDPSEEAGTMARFSLSSAVEGGTWSASAVDQQDSTVSLLLSTPADAPIGLYRLSLEASTGYQGSSFVLGHFILLYNPRCPADAVYMDSDQERQEYVLTQQGFIYQGSAKFINGIPWNFGQFEDGILDICLMLLDTNPKFLKNAGQDCSRRSRPVYVGRVVSAMVNCNDDQGVLQGRWDNNYSDGVSPMSWIGSVDILRRWKDYGCQRVKYGQCWVFAAVACTVLRCLGIPTRVVTNFNSAHDQNSNLLIEYFRNESGEIEGNKSEMIWNFHCWVESWMTRPDLEPGYEGWQALDPTPQEKSEGTYCCGPVPVRAIKEGHLNVKYDAPFVFAEVNADVVNWIRQKDGSLRKSINHLVVGLKISTKSVGRDEREDITHTYKYPEGSEEEREAFVRANHLNKLATKEEAQEETGVAMRIRVGQNMTMGSDFDIFAYITNGTAESHECQLLLCARIVSYNGVLGPVCSTNDLLNLTLDPFSENSIPLHILYEKYGDYLTESNLIKVRGLLIEPAANSYVLAERDIYLENPEIKIRVLGEPKQNRKLIAEVSLKNPLPVPLLGCIFTVEGAGLTKDQKSVEVPDPVEAGEQAKVRVDLLPTEVGLHKLVVNFECDKLKAVKGYRNVIIGPA,transglutaminase-mediated incorporation of a biotinylated lysine analogue into germ tubes (avidin-FITC fluorescence),[1],"Transglutaminase-mediated incorporation of a lysine analogue in the homozygous hwp1/hwp1 mutant strain CAH7-1A (FIG. 2E) was nearly absent as shown by the marked decrease in fluorescence compared to SC5314, CAI4, and CAH7"
same,[14C]-putrescine cross-linking detected by SDS-PAGE and fluorography,[2],no evidence of cross-linking of [^14C]-putrescine to transglutaminase itself or to BSA was seen
same,transglutaminase-mediated incorporation of [14C]-putrescine (TCA-precipitable counts),[2],BSA served as a negative control
same,[14C]-putrescine cross-linking detected by SDS-PAGE and fluorography,"rHwp1ΔC37, P46593",[^14C]-putrescine cross-linking to rHwp1?C37 detected by SDS-PAGE and fluorography required active transglutaminase
same,transglutaminase-mediated incorporation of [14C]-putrescine (TCA-precipitable counts),"rHwp1ΔC37, P46593","Incorporation of [^14C]-putrescine by rHwp1?C37 was equivalent to that of casein, a known substrate of transglutaminases"
same,transglutaminase-mediated incorporation of [14C]-putrescine (TCA-precipitable counts),"N,N' dimethylcasein","Incorporation of [^14C]-putrescine by rHwp1?C37 was equivalent to that of casein, a known substrate of transglutaminases"
